Entries after “also recorded” stand apart in the source; their conditions may differ. Values belong to the molecule of their own block, whether it stands above or below them. Bridges are numbered along the chain shown (N, C = ends). Where no end group is shown, it is not given here.
Experiments:
sdAbs = conditions: read-out: affinity of sdAb for hapten; cited from earlier work
[1] = system: HEK-293T transduced with the aMinoC1 transmembrane receptor; assay: Flow cytometry of peptide-muIgG2a Fc binding to cells with aMinoC1 transmembrane receptor; assay type: cell-based, human; conditions: GWARA, HWAQA, PWAYS, QWAMM; increasing minocycline; caffeine 100 μM
Experimental: Flow cytometry was performed using the MACSQuant Analyzer 10 or MACSQuant X (Miltenyi Biotec). All flow cytometry data was analyzed using FlowJo v.7.6.2 software (Tree Star Inc., Ashland, OR). Cell staining was carried out by incubation with PBS containing the recommended concentration of antibodies at RT for 30 min. PBS washes were carried out between antibody staining. Cell viability was determined using viability dye SYTOX Blue Dead Cell Stain (ThermoFisher) prior to flow cytometric analysis. Cells were first gated for singlet population identified by FSC-H and FSC-A. Next, live cells were identified using a viability dye, followed by gating for target cell populations. The antibodies used in the study are as follows: CD3 PECy7 (Biolegend, 317334), Human CD34 APC-conjugated antibody (R&D system, FAB7227A), Human CD34 Alexa Fluor 488-conjugated antibody (R&D system, FAB7227G), Streptavidin PE (Biolegend, 405204), APC antihuman EGFR antibody (Biolegend, 352905), Alexa Fluor 488 antihuman EGFR antibody (Biolegend, 352907), PE anti-HA.11 Epitope Tag antibody (Biolegend, 901517), Anti-M13-HRP (Sino Biologics, 1197 mm05T-H), Anti-Myc-HRP (Genscript, A00863), and SYTOX Blue Dead Cell Stain (ThermoFisher, S10274).

[2] = system: MinoCAR-transduced PBMC against SupT1-EGFR+ target cells; assay type: cell-based; conditions: 0.1, 1 and 10 μM, 24 h, 1:2 E/T
Experimental: Transduced CAR T cells were determined by staining for the transduction marker RQR8 and normalized by the addition of nontransduced T cells. Effector cells were cocultured with 5.0 × 10^4 number of target cells (SupT1-NT, SupT1-EGFR+, SKOV3-mKate) to achieve the desired effector cell to target ratio. […] Cocultures were incubated for 24–72 h at 37 °C and 5% CO2. After incubation, plates were centrifuged at 400g for 5 min, and the supernatant containing secreted cytokines was collected for cytokine analysis. Cells were stained with anti-hCD34-APC and anti-CD3-PeCy7 to differentiate effector T cells and target cells. Cells were washed with 300 μL o PBS and stained with SYTOX Blue Dead Cell Stain dye. The percentage of target cell survival was measured relative to the number of live target cells cocultured with nonspecific CAR T cells or nontransduced PBMCs.

aMinoC1 sdAb = assay: SPR of peptide-Fc or small-molecule analytes against aMinoC1; assay type: binding, alpaca; conditions: molecules closely related to minocycline
Experimental: (§1) Binding assays were carried out using 1x HBS-EP+ running buffer. Various concentrations (2.5 μM with 2-fold serial dilutions) of the analyte were injected for 150 s at 30 μL/min with 150 s dissociation time. Glycine-HCl (pH 2.0) was used as the regeneration buffer for the sensor chips. For the rechallenge experiment, aMinoC1 was immobilized on a CM5 sensor chip and CX7C peptide-Fc conjugates were loaded at 100 nM and injected as the analyte for 150 s at 30 μL/min. Following the injection of peptide-Fc, a small molecule at 1 μM was injected for 300 s at 30 μL/min, using dual injection function on a Biacore 8k instrument, to dissociate the peptide-Fc from the aMinoC1-peptide complex. The system was then washed using HBS-P^+ buffer for 300 s at 30 μL/min prior to rechallenge with peptide-Fc. The cycle was repeated three times following a final dissociation step of 300 s. For the alanine scanning experiments, the anti-minocycline antibody (sdAb-muIgG2a-Fc fusion) was captured on a Protein A series S sensor chip, to a density of 3000 RU. […] Glycine-HCl (pH 1.5) was used as the regeneration buffer. In each case, flow cell 1 was used for reference subtraction, and a “0 concentration” sensogram of buffer alone was used as a double reference subtraction to factor for drift. Data analysis was carried out using Biacore T200 Evaluation Software, version 3.0, and Biacore Insight evaluation software. […]

aMinoC22 sdAb = assay: SPR of related small molecules against aMinoC22; assay type: binding, alpaca; conditions: molecules closely related to minocycline
Experimental: as §1

aMinoC1-peptide complex = assay: SPR rechallenge: small-molecule-driven dissociation of peptide-Fc from immobilized aMinoC1; assay type: binding; conditions: peptide-Fc 100 nM, small molecule 1 μM
Experimental: Binding assays were carried out using 1x HBS-EP+ running buffer. Various concentrations (2.5 μM with 2-fold serial dilutions) of the analyte were injected for 150 s at 30 μL/min with 150 s dissociation time. Glycine-HCl (pH 2.0) was used as the regeneration buffer for the sensor chips. For the rechallenge experiment, aMinoC1 was immobilized on a CM5 sensor chip and CX7C peptide-Fc conjugates were loaded at 100 nM and injected as the analyte for 150 s at 30 μL/min. Following the injection of peptide-Fc, a small molecule at 1 μM was injected for 300 s at 30 μL/min, using dual injection function on a Biacore 8k instrument, to dissociate the peptide-Fc from the aMinoC1-peptide complex. The system was then washed using HBS-P^+ buffer for 300 s at 30 μL/min prior to rechallenge with peptide-Fc. The cycle was repeated three times following a final dissociation step of 300 s. For the alanine scanning experiments, the anti-minocycline antibody (sdAb-muIgG2a-Fc fusion) was captured on a Protein A series S sensor chip, to a density of 3000 RU. […] Glycine-HCl (pH 1.5) was used as the regeneration buffer. In each case, flow cell 1 was used for reference subtraction, and a “0 concentration” sensogram of buffer alone was used as a double reference subtraction to factor for drift. Data analysis was carried out using Biacore T200 Evaluation Software, version 3.0, and Biacore Insight evaluation software. The 1:1 Langmuir binding model was used to calculate the association (ka), dissociation (kd) rate constants, and equilibrium dissociation constant (KD).

[3] = target: anti-minocycline single-domain antibody clone 1 (aMinoC1 sdAb) (alpaca)
[4] = target: anti-minocycline single-domain antibody clone 1 (aMinoC1 sdAb) (alpaca); remark: listed apart in the source
[5] = target: anti-minocycline single-domain antibody clone 1 (aMinoC1 sdAb) (alpaca); remark: listed apart in the source
[6] = target: anti-minocycline single-domain antibody clone 1 (aMinoC1 sdAb) (alpaca); assay: SPR; Biacore T200; aMino sdAbs immobilized on a CM5 chip (4300-4600 RU); 1x HBS-EP+; analyte from 2.5 uM in 2-fold serial dilutions, 150 s at 30 uL/min, 150 s dissociation; 1:1 Langmuir model
minocycline = assay: SPR
[7] = target: T1, GWARA CX7C peptide-muIgG2a-Fc fusion; assay: ELISA; conditions: chain shown with the change
T1 chain: ACPGWARAFC

[8] = target: T2, HWAQA CX7C peptide-muIgG2a-Fc fusion (disulfide 1-9 (inferred); also: fused to muIgG2a Fc, end not given here); assay: SPR
T2 chain: CPHWAQAFC

[9] = target: T3, PWAYS CX7C peptide-muIgG2a-Fc fusion (disulfide 1-9 (inferred); also: fused to muIgG2a Fc, end not given here); assay: SPR
T3 chain: CPPWAYSFC

[10] = target: T4, QWAMM CX7C peptide-muIgG2a-Fc fusion (disulfide 1-9 (inferred); also: fused to muIgG2a Fc, end not given here); assay: SPR
T4 chain: CPQWAMMFC

[11] = target: T5, GWARA CX7C peptide-muIgG2a-Fc fusion (disulfide 2-10 (inferred); also: fused to muIgG2a Fc, end not given here); assay: SPR
T5 chain: ACPGWARAFC

IFN-γ secretion by PBMCs transduced with the aMinoC1/GWARA-MyD88/CD40 module against the SG3S-peptide negative control, no minocycline; tuned down about 2-fold by increasing minocycline [3]: 520 pg/mL
IL12 secreted by T cells that co-express GWARA-flexi-IL12 and aMinoC1-KDEL without minocycline (retention); released up to 150 pg/mL on day 2 and 2.2 ug/mL on day 7 with minocycline up to 2.5 uM [4]: 450 pg/mL
IFN-y release by MinoUniCAR PBMCs (aMinoC1-CD8stk-CD28TM-CD28-41BBz) with the soluble aEGFR sdAb-GWARA adaptor, 0 uM against 10 uM minocycline [5]: 1570 pg/mL
Kd [6]: 111 nM
Molecule: GWARA CX7C peptide-muIgG2a-Fc fusion

Kd [6]: 328 nM
Molecule: HWAQA CX7C peptide-muIgG2a-Fc fusion

Kd [6]: 283 nM
Molecule: PWAYS CX7C peptide-muIgG2a-Fc fusion

Kd [6]: 209 nM
Molecule: QWAMM CX7C peptide-muIgG2a-Fc fusion

ratio to parent (minocycline): 1.15
ratio to parent [7]: 0.18
B1: anti-minocycline single-domain antibody clone 1 (aMinoC1 sdAb) R64A (protein)
chain: QVQLESGGGLVQPGSSLRLSCAASGRTFSSYNIGWFRQAPKEREFVAAISWSGAATYYADSVKGRFTISRDNAKNTVYLQMNSLKPEDTAVYSCAAGRGWGTEAILDYWGQGTQVSSA

ratio to parent (minocycline): 0.77
ratio to parent [7]: 0.12
B2: anti-minocycline single-domain antibody clone 1 (aMinoC1 sdAb) A63S (protein)
chain: QVQLESGGGLVQPGSSLRLSCAASGRTFSSYNIGWFRQAPKEREFVAAISWSGSRTYYADSVKGRFTISRDNAKNTVYLQMNSLKPEDTAVYSCAAGRGWGTEAILDYWGQGTQVSSA

koff [8]: 0.0058 s⁻¹
koff [9]: 0.0056 s⁻¹
koff [10]: 0.0043 s⁻¹
koff [11]: 0.017 s⁻¹
B3: anti-minocycline single-domain antibody clone 1 (aMinoC1 sdAb) (VHH)
VHH: QVQLESGGGLVQPGSSLRLSCAASGRTFSSYNIGWFRQAPKEREFVAAISWSGARTYYADSVKGRFTISRDNAKNTVYLQMNSLKPEDTAVYSCAAGRGWGTEAILDYWGQGTQVSSA

ratio to parent (minocycline): 1.06
ratio to parent [7]: 0.25
B4: anti-minocycline single-domain antibody clone 1 (aMinoC1 sdAb) W58A (protein)
chain: QVQLESGGGLVQPGSSLRLSCAASGRTFSSYNIGWFRQAPKEREFVAAISASGARTYYADSVKGRFTISRDNAKNTVYLQMNSLKPEDTAVYSCAAGRGWGTEAILDYWGQGTQVSSA

ratio to parent (minocycline): 1.28
ratio to parent [7]: 0.17
B5: anti-minocycline single-domain antibody clone 1 (aMinoC1 sdAb) R28A (protein)
chain: QVQLESGGGLVQPGSSLRLSCAASGATFSSYNIGWFRQAPKEREFVAAISWSGARTYYADSVKGRFTISRDNAKNTVYLQMNSLKPEDTAVYSCAAGRGWGTEAILDYWGQGTQVSSA

ratio to parent (minocycline): 0.97
ratio to parent [7]: 0.15
B7: anti-minocycline single-domain antibody clone 1 (aMinoC1 sdAb) S35A (protein)
chain: QVQLESGGGLVQPGSSLRLSCAASGRTFASYNIGWFRQAPKEREFVAAISWSGARTYYADSVKGRFTISRDNAKNTVYLQMNSLKPEDTAVYSCAAGRGWGTEAILDYWGQGTQVSSA

ratio to parent (minocycline): 1.7
ratio to parent [7]: 0.23
B8: anti-minocycline single-domain antibody clone 1 (aMinoC1 sdAb) G40A (protein)
chain: QVQLESGGGLVQPGSSLRLSCAASGRTFSSYNIAWFRQAPKEREFVAAISWSGARTYYADSVKGRFTISRDNAKNTVYLQMNSLKPEDTAVYSCAAGRGWGTEAILDYWGQGTQVSSA

The next lines start with the molecule.

Molecule: CC(=O)OC[C@]12[C@H](O)C(=O)C(C)=C[C@H]1O[C@@H]1[C@H](O)C[C@@]2(C)[C@]12CO2 [15-acetyl-deoxynivalenol]
Kd (sdAbs): 5000 to 215000 nM

Molecule: Cn1c(=O)c2c(ncn2C)n(C)c1=O [caffeine]
peptide-muIgG2a Fc binding to membrane-bound aMinoC1 in presence of small molecule [1]: no peptide-binding inhibition; also recorded: did not result in a decrease in peptide binding
effect of other small molecules on MinoCAR cytotoxicity [2]: not affected

Molecule: C[C@H]1c2cccc(O)c2C(=O)C2=C(O)[C@]3(O)C(=O)C(C(N)=O)=C(O)[C@@H](N(C)C)[C@@H]3[C@@H](O)[C@@H]21 [doxycycline]
binding to aMinoC1 (SPR) (aMinoC1 sdAb): Neither sdAb showed an interaction; also recorded: lack of binding; also recorded: without cross-reactivity
effect of other small molecules on MinoCAR cytotoxicity [2]: not affected
binding to aMinoC22 (SPR) (aMinoC22 sdAb): Neither sdAb showed an interaction; also recorded: lack of binding
GWARA-Fc dissociation from immobilized aMinoC1 on small-molecule injection (aMinoC1-peptide complex): No enhanced dissociation
peptide-Fc (HWAQA, PWAYS and QWAMM) dissociation from immobilised aMinoC1 on small-molecule injection (aMinoC1-peptide complex): No enhanced dissociation

Molecule: CN(Cc1cnc2nc(N)nc(N)c2n1)c1ccc(C(=O)N[C@@H](CCC(=O)O)C(=O)O)cc1 [methotrexate]
Kd (sdAbs): 29 to 515 nM
effect of other small molecules on MinoCAR cytotoxicity [2]: not affected

Molecule: Nc1c(Cl)c(Cl)nc(C(=O)O)c1Cl [picloram]
Kd (sdAbs): 3000 to 354000 nM

Molecule: O=C(Nc1ccc(Cl)cc1)Nc1ccc(Cl)c(Cl)c1 [triclocarbon]
Kd (sdAbs): 0.98 to 1.37 nM

Molecule: auxin
Kd (sdAbs): 500 to 20000 nM

B6: anti-minocycline single-domain antibody clone 1 (aMinoC1 sdAb) R108A (protein)
chain: QVQLESGGGLVQPGSSLRLSCAASGRTFSSYNIGWFRQAPKEREFVAAISWSGARTYYADSVKGRFTISRDNAKNTVYLQMNSLKPEDTAVYSCAAGAGWGTEAILDYWGQGTQVSSA
ratio to parent (minocycline): 0.88
ratio to parent [7]: 0.17

— PMC10877577 (ACS Chemical Biology, 2024)
